T1: FcγRIIb extracellular domain with C-terminal His tag (human, UniProt P31994 43-217)
T1 construct: extracellular domain; Expressed in FreeStyle293 cells; analyte in the Biacore assay; also called FcgRIIb; 2b; not shown: His tag at the C terminus
T1 sequence (looked up): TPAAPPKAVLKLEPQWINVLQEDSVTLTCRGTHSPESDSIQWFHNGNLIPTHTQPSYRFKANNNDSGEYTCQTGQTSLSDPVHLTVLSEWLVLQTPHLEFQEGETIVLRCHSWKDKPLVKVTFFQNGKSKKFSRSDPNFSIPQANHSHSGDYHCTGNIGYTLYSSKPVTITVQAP


Legend:
[1] = target: T2, FcγRIa extracellular domain with C-terminal His tag (human, UniProt P12314 16-292); test: SPR (Biacore), antibody captured on antigen-peptide chip, FcγR as analyte; relative binding
T2 construct: extracellular domain; Expressed in FreeStyle293 cells; analyte in the Biacore assay; also called FcgRI; 1a; not shown: His tag at the C terminus

[2] = target: T1, FcγRIIb extracellular domain with …; test: as above

T2 sequence (P12314 16-292): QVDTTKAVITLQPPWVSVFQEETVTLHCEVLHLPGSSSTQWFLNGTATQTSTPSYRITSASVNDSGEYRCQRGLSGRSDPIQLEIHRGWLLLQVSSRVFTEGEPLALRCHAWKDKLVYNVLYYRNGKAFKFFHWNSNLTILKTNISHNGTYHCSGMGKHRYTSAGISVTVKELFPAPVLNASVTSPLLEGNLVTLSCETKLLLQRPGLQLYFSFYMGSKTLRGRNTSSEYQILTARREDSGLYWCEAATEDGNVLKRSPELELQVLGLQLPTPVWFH

Row | Binder | He/Con_1a [1] | He/Con_2b [2]
1 | GpH7-A5/GpH7-B3 variant H268_14T/GpL16-k0 (He Ab) (antibody, human IgG1, kappa, Heterodimerized anti-glypican-3 IgG1; the mutation stands in the GpH7-B3 chain only) heavy 1: not shown heavy 2: not shown light: DIVMTQSPLSLPVTPGEPASISCQASESLVHSNRNTYLHWYLQKPGQSPQLLIYKVSNRFSGVPDRFSGSGSGTDFTLKISRVEAEDVGVYYCSQNTHVPPTFGQGTKVEIERTVAAPSVFIFPPSDEQLKSGTASVVCLLNNFYPREAKVQWKVDNALQSGNSQESVTEQDSKDSTYSLSSTLTLSKADYEKHKVYACEVTHQGLSSPVTKSFNRGEC | 112 % of GpH7-A5/GpH7-B3/GpL16-k0 (=100) | 86 % of GpH7-A5/GpH7-B3/GpL16-k0 (=100)
2 | GpH7-A5/GpH7-B3 variant S324_07I/GpL16-k0 (He Ab) (antibody, human IgG1, kappa, Heterodimerized anti-glypican-3 IgG1; the mutation stands in the GpH7-B3 chain only) heavy 1: not shown heavy 2: not shown light: DIVMTQSPLSLPVTPGEPASISCQASESLVHSNRNTYLHWYLQKPGQSPQLLIYKVSNRFSGVPDRFSGSGSGTDFTLKISRVEAEDVGVYYCSQNTHVPPTFGQGTKVEIERTVAAPSVFIFPPSDEQLKSGTASVVCLLNNFYPREAKVQWKVDNALQSGNSQESVTEQDSKDSTYSLSSTLTLSKADYEKHKVYACEVTHQGLSSPVTKSFNRGEC | 102 % of GpH7-A5/GpH7-B3/GpL16-k0 (=100) | 95.7 % of GpH7-A5/GpH7-B3/GpL16-k0 (=100)
3 | GpH7-A5/GpH7-B3 variant S298_20W/GpL16-k0 (He Ab) (antibody, human IgG1, kappa, Heterodimerized anti-glypican-3 IgG1; the mutation stands in the GpH7-B3 chain only) heavy 1: not shown heavy 2: not shown light: DIVMTQSPLSLPVTPGEPASISCQASESLVHSNRNTYLHWYLQKPGQSPQLLIYKVSNRFSGVPDRFSGSGSGTDFTLKISRVEAEDVGVYYCSQNTHVPPTFGQGTKVEIERTVAAPSVFIFPPSDEQLKSGTASVVCLLNNFYPREAKVQWKVDNALQSGNSQESVTEQDSKDSTYSLSSTLTLSKADYEKHKVYACEVTHQGLSSPVTKSFNRGEC | 104 % of GpH7-A5/GpH7-B3/GpL16-k0 (=100) | 41.1 % of GpH7-A5/GpH7-B3/GpL16-k0 (=100)
4 | GpH7-A5/GpH7-B3 variant Y300_01G/GpL16-k0 (He Ab) (antibody, human IgG1, kappa, Heterodimerized anti-glypican-3 IgG1; the mutation stands in the GpH7-B3 chain only) heavy 1: not shown heavy 2: not shown light: DIVMTQSPLSLPVTPGEPASISCQASESLVHSNRNTYLHWYLQKPGQSPQLLIYKVSNRFSGVPDRFSGSGSGTDFTLKISRVEAEDVGVYYCSQNTHVPPTFGQGTKVEIERTVAAPSVFIFPPSDEQLKSGTASVVCLLNNFYPREAKVQWKVDNALQSGNSQESVTEQDSKDSTYSLSSTLTLSKADYEKHKVYACEVTHQGLSSPVTKSFNRGEC | 116 % of GpH7-A5/GpH7-B3/GpL16-k0 (=100) | 48.4 % of GpH7-A5/GpH7-B3/GpL16-k0 (=100)
5 | GpH7-A5/GpH7-B3 variant S324_02A/GpL16-k0 (He Ab) (antibody, human IgG1, kappa, Heterodimerized anti-glypican-3 IgG1; the mutation stands in the GpH7-B3 chain only) heavy 1: not shown heavy 2: not shown light: DIVMTQSPLSLPVTPGEPASISCQASESLVHSNRNTYLHWYLQKPGQSPQLLIYKVSNRFSGVPDRFSGSGSGTDFTLKISRVEAEDVGVYYCSQNTHVPPTFGQGTKVEIERTVAAPSVFIFPPSDEQLKSGTASVVCLLNNFYPREAKVQWKVDNALQSGNSQESVTEQDSKDSTYSLSSTLTLSKADYEKHKVYACEVTHQGLSSPVTKSFNRGEC | 103 % of GpH7-A5/GpH7-B3/GpL16-k0 (=100) | 78.3 % of GpH7-A5/GpH7-B3/GpL16-k0 (=100)

The remaining lines, values ahead:

Row | He/Con_1a [1] | He/Con_2b [2] | Binder
6 | 111 % of GpH7-A5/GpH7-B3/GpL16-k0 (=100) | 53.9 % of GpH7-A5/GpH7-B3/GpL16-k0 (=100) | GpH7-A5/GpH7-B3 variant Y300_13S/GpL16-k0 (He Ab) (antibody, human IgG1, kappa, Heterodimerized anti-glypican-3 IgG1; the mutation stands in the GpH7-B3 chain only) heavy 1: not shown heavy 2: not shown light: DIVMTQSPLSLPVTPGEPASISCQASESLVHSNRNTYLHWYLQKPGQSPQLLIYKVSNRFSGVPDRFSGSGSGTDFTLKISRVEAEDVGVYYCSQNTHVPPTFGQGTKVEIERTVAAPSVFIFPPSDEQLKSGTASVVCLLNNFYPREAKVQWKVDNALQSGNSQESVTEQDSKDSTYSLSSTLTLSKADYEKHKVYACEVTHQGLSSPVTKSFNRGEC
7 | 107 % of GpH7-A5/GpH7-B3/GpL16-k0 (=100) | 51.6 % of GpH7-A5/GpH7-B3/GpL16-k0 (=100) | GpH7-A5/GpH7-B3 variant Y300_11K/GpL16-k0 (He Ab) (antibody, human IgG1, kappa, Heterodimerized anti-glypican-3 IgG1; the mutation stands in the GpH7-B3 chain only) heavy 1: not shown heavy 2: not shown light: DIVMTQSPLSLPVTPGEPASISCQASESLVHSNRNTYLHWYLQKPGQSPQLLIYKVSNRFSGVPDRFSGSGSGTDFTLKISRVEAEDVGVYYCSQNTHVPPTFGQGTKVEIERTVAAPSVFIFPPSDEQLKSGTASVVCLLNNFYPREAKVQWKVDNALQSGNSQESVTEQDSKDSTYSLSSTLTLSKADYEKHKVYACEVTHQGLSSPVTKSFNRGEC
8 | 113 % of GpH7-A5/GpH7-B3/GpL16-k0 (=100) | 73.6 % of GpH7-A5/GpH7-B3/GpL16-k0 (=100) | GpH7-A5/GpH7-B3 variant Y300_08L/GpL16-k0 (He Ab) (antibody, human IgG1, kappa, Heterodimerized anti-glypican-3 IgG1; the mutation stands in the GpH7-B3 chain only) heavy 1: not shown heavy 2: not shown light: DIVMTQSPLSLPVTPGEPASISCQASESLVHSNRNTYLHWYLQKPGQSPQLLIYKVSNRFSGVPDRFSGSGSGTDFTLKISRVEAEDVGVYYCSQNTHVPPTFGQGTKVEIERTVAAPSVFIFPPSDEQLKSGTASVVCLLNNFYPREAKVQWKVDNALQSGNSQESVTEQDSKDSTYSLSSTLTLSKADYEKHKVYACEVTHQGLSSPVTKSFNRGEC
9 | 111 % of GpH7-A5/GpH7-B3/GpL16-k0 (=100) | 87 % of GpH7-A5/GpH7-B3/GpL16-k0 (=100) | GpH7-A5/GpH7-B3 variant Y300_16H/GpL16-k0 (He Ab) (antibody, human IgG1, kappa, Heterodimerized anti-glypican-3 IgG1; the mutation stands in the GpH7-B3 chain only) heavy 1: not shown heavy 2: not shown light: DIVMTQSPLSLPVTPGEPASISCQASESLVHSNRNTYLHWYLQKPGQSPQLLIYKVSNRFSGVPDRFSGSGSGTDFTLKISRVEAEDVGVYYCSQNTHVPPTFGQGTKVEIERTVAAPSVFIFPPSDEQLKSGTASVVCLLNNFYPREAKVQWKVDNALQSGNSQESVTEQDSKDSTYSLSSTLTLSKADYEKHKVYACEVTHQGLSSPVTKSFNRGEC
10 | 117 % of GpH7-A5/GpH7-B3/GpL16-k0 (=100) | 73.9 % of GpH7-A5/GpH7-B3/GpL16-k0 (=100) | GpH7-A5/GpH7-B3 variant Y300_03V/GpL16-k0 (He Ab) (antibody, human IgG1, kappa, Heterodimerized anti-glypican-3 IgG1; the mutation stands in the GpH7-B3 chain only) heavy 1: not shown heavy 2: not shown light: DIVMTQSPLSLPVTPGEPASISCQASESLVHSNRNTYLHWYLQKPGQSPQLLIYKVSNRFSGVPDRFSGSGSGTDFTLKISRVEAEDVGVYYCSQNTHVPPTFGQGTKVEIERTVAAPSVFIFPPSDEQLKSGTASVVCLLNNFYPREAKVQWKVDNALQSGNSQESVTEQDSKDSTYSLSSTLTLSKADYEKHKVYACEVTHQGLSSPVTKSFNRGEC
